Laboratory results published in publication PMC3391209, “A Lon-Like Protease with No ATP-Powered Unfolding Activity” (PLoS ONE, 2012).
pKd: −log10 of the molar value. Blank lines part the entries; values can stand above or below the compound they belong to.

Legend:
EcLonA = target: T1, EcLonA (Escherichia coli, UniProt P0A9M0); experiment: […]-NMR of phosphate release; colorimetric ATPase assay; type: biochemical; conditions: 37 °C, 50 mM Tris-HCl pH 8.0, 10 mM MgCl2, 10 mM ATP (NMR); positive control
T1 construct: gene lon; recombinant, expressed and purified as described previously
T1 sequence (P0A9M0 2-784): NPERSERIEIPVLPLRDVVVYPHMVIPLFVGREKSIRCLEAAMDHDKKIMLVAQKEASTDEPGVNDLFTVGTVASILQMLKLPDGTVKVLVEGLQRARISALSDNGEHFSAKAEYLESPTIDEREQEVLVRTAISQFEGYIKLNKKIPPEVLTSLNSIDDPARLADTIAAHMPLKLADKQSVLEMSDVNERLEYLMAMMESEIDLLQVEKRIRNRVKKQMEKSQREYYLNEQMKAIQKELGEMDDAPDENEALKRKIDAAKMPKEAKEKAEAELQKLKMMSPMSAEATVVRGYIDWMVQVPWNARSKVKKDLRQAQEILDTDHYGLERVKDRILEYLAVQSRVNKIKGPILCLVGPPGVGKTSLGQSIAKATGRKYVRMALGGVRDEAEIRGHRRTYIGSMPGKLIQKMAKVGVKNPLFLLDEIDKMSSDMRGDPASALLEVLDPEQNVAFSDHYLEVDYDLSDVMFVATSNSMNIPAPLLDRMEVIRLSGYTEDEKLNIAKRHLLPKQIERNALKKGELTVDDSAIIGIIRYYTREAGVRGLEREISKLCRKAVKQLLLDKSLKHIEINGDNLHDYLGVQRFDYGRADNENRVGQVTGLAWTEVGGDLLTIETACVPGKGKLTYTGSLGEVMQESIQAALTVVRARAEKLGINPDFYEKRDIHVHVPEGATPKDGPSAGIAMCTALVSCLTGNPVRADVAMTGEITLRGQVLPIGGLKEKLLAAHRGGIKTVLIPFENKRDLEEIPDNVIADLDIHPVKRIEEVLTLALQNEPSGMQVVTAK

[1] = target: Lon-like protease MtaLonC from Meiothermus taiwanensis WR-220 (Meiothermus taiwanensis WR-220); experiment: SEC; Superose 6; 1 mg/mL, pH 5-8; hexamer formation not dependent on Mg2+ or ATP; aggregates in the void volume when concentrated
[2] = target: Lon-like protease MtaLonC from Meiothermus taiwanensis WR-220 (Meiothermus taiwanensis WR-220); experiment: AUC; sedimentation equilibrium (4,000-6,000 r.p.m.) and sedimentation velocity (20,000 rpm), 20°C, 20 mM sodium citrate pH 5.5, 100 mM NaCl, 1 mM DTT, 7.8 µM protein
[3] = target: Lon-like protease MtaLonC from Meiothermus taiwanensis WR-220 (Meiothermus taiwanensis WR-220); experiment: negative-stain electron microscopy; about 50 µg/ml MtaLonC, 2% uranyl acetate, class averages; hexamer and void-volume fractions from Superose 6
MtaLonC = target: T2, MtaLonC (Meiothermus taiwanensis, UniProt C9DRU9); experiment: isothermal titration calorimetry, one-site fit; type: binding
T2 construct: gene lon_2; full-length, 719 residues, C-terminal His tag (pET21a), expressed in E. coli BL21(DE3); homohexamer, monomer 79 kDa
T2 sequence (C9DRU9 1-719): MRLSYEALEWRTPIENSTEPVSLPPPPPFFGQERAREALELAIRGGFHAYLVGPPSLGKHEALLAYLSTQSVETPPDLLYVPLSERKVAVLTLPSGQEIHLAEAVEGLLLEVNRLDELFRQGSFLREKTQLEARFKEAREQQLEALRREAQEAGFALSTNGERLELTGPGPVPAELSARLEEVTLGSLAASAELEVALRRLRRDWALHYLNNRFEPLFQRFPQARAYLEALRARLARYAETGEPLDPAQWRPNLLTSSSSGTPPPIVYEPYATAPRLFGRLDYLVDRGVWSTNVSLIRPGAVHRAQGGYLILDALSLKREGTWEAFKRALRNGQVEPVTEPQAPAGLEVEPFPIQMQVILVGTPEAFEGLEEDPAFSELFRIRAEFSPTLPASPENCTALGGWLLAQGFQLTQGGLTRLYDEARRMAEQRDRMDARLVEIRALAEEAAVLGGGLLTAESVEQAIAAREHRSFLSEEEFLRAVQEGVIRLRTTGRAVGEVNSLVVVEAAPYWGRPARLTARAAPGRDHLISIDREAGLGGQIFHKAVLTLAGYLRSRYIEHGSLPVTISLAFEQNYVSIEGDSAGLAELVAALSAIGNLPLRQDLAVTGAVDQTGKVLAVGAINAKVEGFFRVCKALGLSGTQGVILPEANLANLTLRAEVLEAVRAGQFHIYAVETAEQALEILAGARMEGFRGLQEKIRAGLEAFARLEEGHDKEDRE

Compound: Nc1ncnc2c1ncn2[C@@H]1O[C@H](COP(=O)(O)OP(=O)(O)OP(=O)(O)O)[C@@H](O)[C@H]1O [ATP]
31P-NMR of phosphate release; colorimetric ATPase assay (EcLonA): incubation of an excess amount of ATP with EcLonA resulted in hydrolysis of ATP

stoichiometry N [1]: 6
stoichiometry N [2]: 6
stoichiometry N [3]: 6
Compound: Lon-like protease MtaLonC from Meiothermus taiwanensis WR-220 (enzyme)

Compound: Nc1ncnc2c1ncn2[C@@H]1O[C@H](CO[P@](=O)(O)O[P@](=O)(O)O[P@@](=O)(O)S)[C@@H](O)[C@H]1O [ATPγS]
pKd (MtaLonC): 5.11
